PMC3877365

Legend:
[1] = molecular target: BCRZFP-orfA fusion protein (walleye dermal sarcoma virus orfA protein fused to the BCR-ABL zinc finger protein) (walleye dermal sarcoma virus (WDSV)); test: two-hybrid; ZFN-Y2H, LacZ reporter: relative β-galactosidase activity (ONPG assay) of colonies in liquid medium, wild-type Gal4 (pADH-Gal4) set to 100%
[2] = molecular target: BCRZFP-orfA fusion protein (walleye dermal sarcoma virus orfA protein fused to the BCR-ABL zinc finger protein) (walleye dermal sarcoma virus (WDSV)); test: two-hybrid; ZFN-Y2H: bait fused to BCR-ZFP, prey fused to FokI, co-transformed into AH109 carrying the reporter pADH-Gal4-BS; growth on SD plates lacking histidine and adenine, 30°C, at least three days; colonies counted against non-selective plates; spotting of dilutions

Chain of BCRZFP-orfA fusion protein (walleye dermal sarcoma virus orfA protein fused to the BCR-ABL zinc finger protein) (walleye dermal sarcoma virus (WDSV)) (Q88939 whole entry, the tested form may be a part): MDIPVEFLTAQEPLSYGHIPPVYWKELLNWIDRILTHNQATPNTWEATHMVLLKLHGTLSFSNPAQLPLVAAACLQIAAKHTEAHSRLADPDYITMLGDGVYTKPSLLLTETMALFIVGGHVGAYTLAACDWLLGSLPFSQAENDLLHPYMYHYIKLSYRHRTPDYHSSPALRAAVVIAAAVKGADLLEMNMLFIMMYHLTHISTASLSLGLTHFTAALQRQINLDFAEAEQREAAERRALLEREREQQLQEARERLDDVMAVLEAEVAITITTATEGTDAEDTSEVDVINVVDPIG
Chain of FokI-E2F5 fusion protein (human E2F5 fused to the FokI nuclease domain) (natural protein) (Q15329 whole entry, the tested form may be a part): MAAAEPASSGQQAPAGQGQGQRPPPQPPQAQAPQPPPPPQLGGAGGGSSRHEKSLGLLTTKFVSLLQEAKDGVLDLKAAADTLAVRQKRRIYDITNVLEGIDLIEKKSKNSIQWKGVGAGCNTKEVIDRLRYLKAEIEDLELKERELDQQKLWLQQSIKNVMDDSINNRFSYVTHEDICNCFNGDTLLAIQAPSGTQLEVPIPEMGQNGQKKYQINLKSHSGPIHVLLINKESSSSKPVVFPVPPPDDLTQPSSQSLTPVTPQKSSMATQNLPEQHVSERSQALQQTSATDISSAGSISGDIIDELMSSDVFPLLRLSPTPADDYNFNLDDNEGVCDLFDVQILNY

FokI-E2F5 fusion protein (human E2F5 fused to the FokI nuclease domain) (natural protein)
relative β-galactosidase activity [1]: 84.3%
percent of transformants surviving on selective medium [2]: 22.5%
